According to patent US20120207760A1:

B1: 3259_J21 (antibody, V domains shown)
VH: QVQLQESGPRVVRPSETLSLTCTVSGGSISSYNWIWIRQPPGKGLEWIGHIYDYGRTFYNSSLQSRPTISVDASKNQLSLRLTSVTASDTAVYYCARPLGILHYYAMDLWGQGTTVTVSS
VL: DIQMTQSPLSVSVSVGDRVTIACRASQSIDKFLNWYQQKPGKAPKLLIYGASNLHSGAPSRFSASGSGTDFTLTITNIQTEDFATYLCQQSFSVPAFGGGTKVEIK
B2: TCN-543 (5081_G23) (antibody, V domains shown)
VH: QVHLVQSGAEVRKPGDSVKVSCKTSGYTFSTYPVAWVRQVPGQGLEWMGWISTYNGNTNFAQNFQGRVTLTTDTTTNTAYMEVRSLKFDDTAVYYCARVEGSYRDFWNNQNRFDPWGQGTLVTVSS
VL: SYVLTQPPSVSVAPGQTARISCGGSNIGGKSVHWYQQKPGQAPVLVVYDDSGRPSGIPERFSGSNSGDTATLTISRVEAGDEADYFCQVWDNFGGVFGTGTKVTVL
B3: TCN-549 (5092_P04) (antibody, V domains shown)
VH: QVQLVQSGAEVKKPGASVKVSCKASGYTFTGYYMHWVRQAPGQGLEWMGWINPNSGDTNYAQKFQGRVTMTRDTSITTAYMELSSLRSDDTAVYYCARDSPYSSSWSFFDYWGQGPLVTVSS
VL: not shown
B4: 3248_P18 (antibody, V domains shown)
VH: QVQLQESGPGLVKPSETLSLTCTVSGGSISAYHWSWIRQPPGKGLEWIGHIFDSGSTYYNPSLKSRVTISLDASKNQLSLRLTSVTASDTAIYYCARPLGSRYYYGMDVWGQGTTVTVSS
VL: DIQMTQSPSSLSASVGDRVTITCRASQSISRYLNWYQQKPGKAPKLLIYGASTLQNGAPSRFSGSGSGTDFTLTISSLQPEDSATYLCQQSYSVPAFGGGTKVEVK
B5: 3260_D19 (antibody, V domains shown)
VH: DMQLVESGGGLVPPGGSLRLSCAASGFSVSDNYINWVRQAPGKGLDWVSVFYSADRTSYADSVKGRFTVSSHDSKNTVYLQMNSLRAEDTAVYYCARVQKSYYGMDVWGQGTTVTVSS
VL: GIQMTQSPSSLSASVGDRVTITCRASQSISRYLNWYLQKPGKAPKLLISGASSLQSGVPSRFSGTGSGTEFTLTISSLQPEDFATYYCQQTFSIPLFGQGTKVEIK
B6: TCN-544 (5082_A19) (antibody, V domains shown)
VH: QVQLQESGPGLVKPSETLSLTCTVSRGSIGHYFWSWIRQPPGKGLEWIGYISYSGSTKYNPSLRSRVTISVDTSKNQFSLNLNSVTATDTALYYCAREDYDILTGAGPGMEVWGQGTTVTVSS
VL: QSMLTQPPSASGTPGQRVTISCSGSSSNIGSNTVNWFKHLPGTAPKLLIYRNDLRPSGVPDRFSGSKSGTSASLAISGLQSEDEADYYCATWDDSLNGFYVFGTGTKVTVL
B7: 3245_O19 (antibody, V domains shown)
VH: EVQLVESGGGLVQPGGSLRLSCTASGLSVSSTYMNWVRQAPGKGLEWVSVFYSETRTYYADSVKGRFTVSRHNSNNTLYLQMNSLRVEDTAVYYCARVQRLSYGMDVWGQGTTVTVSS
VL: DIQMTQSPSSLSASVGDRVTITCRASQSISTYLNWYQKRPGKAPKLLVYGASTLQSGVPSRFSGSGSGTDFTLTIASLQPEDSATYYCQQTYSIPLFGQGTRLEIK
B8: 3244_H04 (antibody, V domains shown)
VH: EVQLVESGGGLVQPGGSLRLSCTASGLSVSSTYMNWVRQAPGKGLEWVSVFYSETRTYYADSVKGRFTVSRHNSNNTLYLQMNSLRAEDTAVYYCARVQRLSYGMDVWGQGTTVTVSS
VL: DIQMTQSPSSLSASVGDRVTITCRASQSISTYLNWYQKRPGKAPKLLVYGASSLQSGVPSRFSGSGSGTDFTLTIASLQPEDSAVYYCQQTYSIPLFGQGTRLEIK
B9: 3139_P23 (antibody, V domains shown)
VH: QVQLQESGPRLVKPSESLSLTCTVSGGSISNSFWGWIRQPPGEGLEWIGYVYNSGNTKYNPSLKSRVTISRDTSKSQLYMKLRSVTAADTAVYYCARHDDASHGYSISWGHGTLVTVSS
VL: DIQMTQSPSSLSASVGDRVTITCRASQTISTYLNWYQQKSGKAPKLLIYAASGLQSGVPSRFSGSGSGTDFTLTISSLQPEDFATYFCQQSYNTPLTFGQGTKVEIK
B10: 3252_C13 (antibody, V domains shown)
VH: QVQLQESGPGLVKPSETLSLTCTVSGASISSDYWSWIRLPPGKGLEWIGYIYNRGSTKYTPSLKSRVTISLDTAENQFSLRLRSVTAADTAIYYCARHVGGHTYGIDYWGQGTLVTVSS
VL: DIQMTQSPSSLSASVGDRVTITCRASQSISNYLNWYQHKPGEAPKLLNYAASSLQSGVPSRFSASGSGTDFTLTISSLQPEDFATYYCQQSYNTPITFGQGTRLEIK
B11: 3255_J06 (antibody, V domains shown)
VH: QVQLQESGPGLVKPSETLSLTCTVSGASISSDYWSWIRLPPGKGLEWIGYIYNRGSTKYTPSLKSRVTISLDTAENQFSLRLRSVTAADTAVYYCARHVGGHTYGIDYWGQGTLVTVSS
VL: DIQMTQSPSSLSASVGDRVTITCRASQSISNYLNWYQHKPGEAPKLLNYAASSLQSGVPSRFSASGSGTDFTLSISGLQPEDFATYYCQQSYNTPITFGPGTRLEIK
B12: 3420_I23 (antibody, V domains shown)
VH: QVQLQESGPGLVKPSETLSVTCKVSGDSISSYSWSWIRQPPGKGLEWVGYLYYSGSTKYNPSLKSRTTISVDTSTNQLSLKLSFVTAADTAVYFCARTGSESTTGYGMDVWGQGTTVTVSS
VL: DIQMTQSPSSLSASVGDRVTITCRASQSISTYLNWYQQKPGKAPKLLIYAASSLHSGVPSRFSGSGSGTDFALTISSLQPEDFATYYCQQSYSPPITFGQGTRLEIK
B13: 3243_J07 (antibody, V domains shown)
VH: QVQLQESGPGLLKPSDTLALTCTVSGGSITSDYWSWIRQPPGRGLDWIGFFYNGGSTKYNPSLKSRVTISADTSKNQLSLKLTSVTAADTGVYYCARHDVKFSGSYYVASWGQGTRVTVSS
VL: DIQMTQSPSSLSASVGDRVTISCRASQSISTYLNWYQQQPGKAPKVLISGATNLQSGVPSRFSGSGSGTDFTLTISSLQPEDFATYYCQQSYNTPLIFGQGTKLEIK
B14: 3253_P10 (antibody, V domains shown)
VH: QVQLQESGPGLLKPSDTLALTCTVSGGSITSDYWSWIRQPPGRGLDWIGFFYNGGSTKYNPSLKSRVTISADTSKNQLSLKLTSVTAADTGVYYCARHDAKFSGSYYVASWGQGTRVTVSS
VL: DIQMTQSPSSLSASVGDRVTISCRASQSISTYLNWYQQQPGKAPKVLISGATDLQSGVPSRFSGSGSGTDFTLTISSLQPEDFATYYCQQSYNTPLIFGQGTKLEIK
B15: 3136_G05 (antibody, V domains shown)
VH: QVQLQESGPGLVKPSETLSLTCSVSGGSISSDFWSWIRQPPGKGLEWIGYVYNRGSTKYSPSLKSRVTISADMSKNQFSLNMSSVTAADTAVYYCAKNGRSSTSWGIDVWGKGTTVTVSS
VL: DIQMTQSPSSLSASVGDRLTITCRASQSISTYLHWYQQKPGKAPKLLIYAASSLQSGVPSRFSGSRSGTDFTLTISSLQPDDFATYYCQQSYSPPLTFGPGTKVDMK

Assays:
[1] = target: M2 protein of influenza A/Hong Kong/483/97 (H5N1) (Influenza A virus A/Hong Kong/483/97)
[2] = target: recombinant homotrimeric HA, A/Wisconsin/67/05 H3N2 (Influenza A virus A/Wisconsin/67/05 (H3N2)); test: trimeric HA microarray, transfection set 5; conditions: remark: other sources report otherwise
[3] = target: recombinant homotrimeric HA, A/Solomon Islands/3/06 H1N1 (Influenza A virus A/Solomon Islands/3/06 (H1N1)); test: trimeric HA microarray, transfection set 5; conditions: remark: other sources report otherwise
[4] = target: recombinant homotrimeric HA, A/California/4/09 H1N1 (Influenza A virus A/California/4/09 (H1N1)); test: trimeric HA microarray, transfection set 5; conditions: remark: other sources report otherwise
[5] = target: recombinant homotrimeric HA, A/South Carolina/1/18 H1N1 (Influenza A virus A/South Carolina/1/18 (H1N1)); test: trimeric HA microarray, transfection set 5; conditions: remark: other sources report otherwise
[6] = target: recombinant homotrimeric HA, A/Japan/305/57 H2N2 (Influenza A virus A/Japan/305/57 (H2N2)); test: trimeric HA microarray, transfection set 5; conditions: remark: other sources report otherwise

Binder | FACS M2-HK MFI [1] | further results
B1 | 1670 MFI | 
B2 |  | Trimeric HA Binding RLU [2]: 37000 RLU; Trimeric HA Binding RLU [3]: 43500 RLU; Trimeric HA Binding RLU [4]: 2340 RLU; Trimeric HA Binding RLU [5]: 28300 RLU
B3 |  | Trimeric HA Binding RLU [2]: 51600 RLU; Trimeric HA Binding RLU [3]: 640 RLU; Trimeric HA Binding RLU [6]: 1080 RLU; Trimeric HA Binding RLU [4]: 622 RLU
B4 | 967 MFI | 
B5 | 846 MFI | 
B6 |  | Trimeric HA Binding RLU [3]: 997 RLU; Trimeric HA Binding RLU [6]: 1000 RLU; Trimeric HA Binding RLU [4]: 706 RLU; Trimeric HA Binding RLU [5]: 1330 RLU
B7 | 919 MFI | 
B8 | 963 MFI | 
B9 | 110 MFI | 
B10 | 449 MFI | 
B11 | 442 MFI | 
B12 | 112 MFI | 
B13 | 131 MFI | 
B14 | 43 MFI | 
B15 | 109 MFI | 
